# Paper PMC6383938 (PLoS Biology, 2019)
# Assays:
# [1] = target: human copper chaperone for SOD1 domain II–III construct (human); assay: SEC-MALS; SEC and light scattering–derived molecular weights of hCCS truncations at micromolar concentration
# [2] = target: human superoxide dismutase-1 as used in the SEC complexation assays (variant not stated) (human) (UniProt P00441); assay: SEC; complexation of hCCS dimer interface variants with hSOD1 followed over a time course from 8 minutes to 4 days; Agilent BioSec Advance 300 Å 4.6 × 300 mm column; heterodimer peak height plotted
# [3] = target: the molecule itself; assay: SEC; size exclusion chromatograms of hCCS alone (wild type and Ala231Gly); relative amounts of dimeric and monomeric species
stoichiometry N [1],fold slower complexation than with wild-type hCCS [2] [fold],Molecule,binding result [3]
2,–,human copper chaperone for SOD1 domain II–III construct (domain or fragment),–
–,> 300,"human copper chaperone for SOD1 Ala231Gly (natural protein, UniProt O14618 1-274, looked up, also called Ala231Gly hCCS; A231G hCCS; source: expressed and purified as previously described [29,35,42]) MASDSGNQGTLCTLEFAVQMTCQSCVDAVRKSLQGVAGVQDVEVHLEDQMVLVHTTLPSQEVQALLEGTGRQAVLKGMGSGQLQNLGAAVAILGGPGTVQGVVRFLQLTPERCLIEGTIDGLEPGLHGLHVHQYGDLTNNCNSCGNHFNPDGASHGGPQDSDRHRGDLGNVRADADGRAIFRMEDEQLKVWDVIGRSLIIDEGEDDLGRGGHPLSKITGNSGERLACGIIGRSAGLFQNPKQICSCDGLTIWEERGRPIAGKGRKESAQPPAHL",binds
–,–,"wild-type human copper chaperone for SOD1 (natural protein, UniProt O14618 1-274, looked up, human copper chaperone for SOD1 (hCCS), wild type; also called hCCS; wild-type hCCS; source: expressed and purified as previously described [29,35,42]) MASDSGNQGTLCTLEFAVQMTCQSCVDAVRKSLQGVAGVQDVEVHLEDQMVLVHTTLPSQEVQALLEGTGRQAVLKGMGSGQLQNLGAAVAILGGPGTVQGVVRFLQLTPERCLIEGTIDGLEPGLHGLHVHQYGDLTNNCNSCGNHFNPDGASHGGPQDSDRHRGDLGNVRADADGRAIFRMEDEQLKVWDVIGRSLIIDEGEDDLGRGGHPLSKITGNSGERLACGIIARSAGLFQNPKQICSCDGLTIWEERGRPIAGKGRKESAQPPAHL",binds
